The values below come from patent US20180066015A1, “INHIBITORS OF GROWTH FACTOR ACTIVATION ENZYMES” (Washington University, published 2018).

Several values for one entry are separate records, joined by “and”; a condition that tells them apart may be missing. Equal values may be shown once. Read-outs that look alike come from different tables or passages of the source. Positions of bridges follow the written chain, without caps; N, C: chain ends. Primed or numbered codes have the meaning given here. *: point of attachment. ketothiazole = C-terminal ketothiazole (kt), c1csc(*)n1; Kbt = ketobenzothiazole, c1ccc2sc(*)nc2c1; kt = C-terminal ketothiazole, c1csc(*)n1; kt″ = ketothiazole, c1csc(*)n1

Test [1] addresses Hepatocyte Growth Factor Activator (HGFA) serine protease domain, N-terminal His-tag, recombinant (Homo sapiens (Human)) (UniProt Q04756).
The target is the same in test [2]. The test is described as follows: fluorogenic inhibition assay.
Test [3] addresses recombinant thrombin. The test is described as follows: chromogenic inhibition assay.
Test [4] addresses Factor Xa. The test is described as follows: chromogenic inhibition assay.
The target in test [5] is T1, matriptase (Charles Craik, UCSF), recombinant (Homo sapiens (Human)) (UniProt Q9Y5Y6).
T1 sequence: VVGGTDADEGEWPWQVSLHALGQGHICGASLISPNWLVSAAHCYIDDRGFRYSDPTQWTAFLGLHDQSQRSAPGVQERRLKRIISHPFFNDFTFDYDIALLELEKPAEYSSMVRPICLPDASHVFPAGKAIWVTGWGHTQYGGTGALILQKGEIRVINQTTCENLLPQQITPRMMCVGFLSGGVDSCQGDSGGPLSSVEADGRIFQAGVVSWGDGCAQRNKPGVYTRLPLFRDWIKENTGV

For test [6], the target named is Recombinant human hepsin (4776-SE-010, R&D Systems), activated (human) (UniProt P05981).
For test [7], the target named is T2, Recombinant human hepsin (4776-SE-010, R&D Systems), activated (human, UniProt P05981). The test is described as follows: fluorogenic inhibition assay. Here is the method: (§1) Inhibitors (11-pt serial dilutions, 0-20 μM final concentration in reaction) were serially diluted in DMSO (2% DMSO final concentration) and then mixed with either recombinant serine protease domain of HGFA [Z. Han, P. K. Harris, D. E. Jones, R. Chugani, T. Kim, M. Agarwal, W. Shen, S. A. Wildman, J. W. Janetka, Acs Med Chem Lett 2014, 5, 1219-1224], matriptase (Charles Craik, UCSF) or hepsin* (#4776-SE-010, R&D Systems, Minneapolis, Minn.) in black 384 well plates (Corning #3575. Corning, N.Y.). […] The final substrate concentrations for all assays were at the Kₘ for the respective enzymes. Changes in fluorescence (excitation at 380 nm and emission at 460 nm) were measured at room temperature over time in a Biotek Synergy 2 plate reader (Winnoski, Vt.). Using GraphPad Prism version 6.04 software program, (GraphPad Software, San Diego, Calif., www.graphpad.com), a four parameter curve fit was used to determine the inhibitor IC₅₀s from a plot of the mean reaction velocity versus the inhibitor concentration. The IC₅₀ values represent the average of three separate experimental determinations.
(§2) Fluorescent inhibitor and chromogenic proteolytic assays were performed in general accordance with the procedures described in Example 4 for compounds prepared in Examples 5 and 6.

Test [8] addresses T3, matriptase (Charles Craik, UCSF), recombinant (Homo sapiens (Human), UniProt Q9Y5Y6).
T3 sequence: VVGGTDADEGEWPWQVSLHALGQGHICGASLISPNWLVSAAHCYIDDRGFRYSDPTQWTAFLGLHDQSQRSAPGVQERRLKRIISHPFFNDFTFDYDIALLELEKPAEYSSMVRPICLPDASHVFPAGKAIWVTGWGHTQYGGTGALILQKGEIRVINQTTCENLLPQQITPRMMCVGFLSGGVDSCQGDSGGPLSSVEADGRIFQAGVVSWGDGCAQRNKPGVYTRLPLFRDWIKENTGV
Nature of the test: fluorogenic inhibition assay. On the procedure: as §1, §2

Test [9] has as its target recombinant thrombin. The test is described as follows: selectivity inhibition assay.
For a further test, the target named is Trypsin. The test is described as follows: selectivity inhibition assay.
Test [10] has as its target Factor Xa. Nature of the test: selectivity inhibition assay.
Test [11] deals with T2, Recombinant human hepsin (4776-SE-010, …). The test is described as follows: fluorogenic inhibition assay. On the procedure: as §1
The source holds these as a separate data set.

Test [12] has as its target T3, matriptase (Charles Craik, UCSF), …. Nature of the test: fluorogenic inhibition assay. On the procedure:
as §1
This is another data set of the same source.

On to Ac-KQFR(SEQ ID NO: 4)-kt (peptide), for which the IC50 of enzyme inhibition in [1] came out at 470 nM. The Ki was 58 nM in test [2], above 20000 nM with recombinant thrombin [3] and 78.8 nM in the test with Factor Xa [4].

B1: Ac-KFLR(SEQ ID NO: 5)-kt (peptide)
peptide: Ac-KFLR-ketothiazole
SMILES: CC(=O)N[C@@H](CCCCN)C(=O)N[C@@H](Cc1ccccc1)C(=O)N[C@@H](CC(C)C)C(=O)N[C@@H](CCCNC(=N)N)C(=O)c1nccs1
B1: the IC50 of enzyme inhibition was 35 nM in test [5], 22 nM in test [6] and 330 nM in test [1]. Moreover, in test [2], the Ki was 80 nM.

Turning to Ac-KRLR-{Kbt-Benzyl‑4‑COOMe} [Ac-KRLR(SEQ ID NO: 8)-kbt-Benzyl-4-COOMe], the Ki is 0.26 nM in test [7]; 0.98 nM in test [8]; 5.85 nM in [2]; 20.9 nM with recombinant thrombin [9]; 0.05 nM in the test with Trypsin; 9 nM in the test with Factor Xa [10].

B2: Ac-SHLR(SEQ ID NO: 11)-kt (peptide)
peptide: Ac-SHLR-kt
SMILES: CC(=O)N[C@@H](CO)C(=O)N[C@@H](Cc1c[nH]cn1)C(=O)N[C@@H](CC(C)C)C(=O)N[C@@H](CCCNC(=N)N)C(=O)c1nccs1
As for B2, the IC50 of enzyme inhibition in test [5] turned out to be 560 nM; in test [6], 5 nM; in test [1], 1800 nM. In addition, the figures for the Ki in test [2], in test [11] and in [12] were 332 nM, 0.6 nM and 104 nM, respectively.

B3: Ac-KHLR(SEQ ID NO: 2)-kt (peptide)
peptide: Ac-KHLR-{kt″}
SMILES: CC(=O)N[C@@H](CCCCN)C(=O)N[C@@H](Cc1c[nH]cn1)C(=O)N[C@@H](CC(C)C)C(=O)N[C@@H](CCCNC(=N)N)C(=O)c1nccs1
With B3, the IC50 of enzyme inhibition in [1] came out at 650 nM. In addition, the Ki in test [2] was determined as 96 nM; in test [11], 0.41 nM; in [12], 22.3 nM.

B4: Ac-WRLR(SEQ ID NO: 9)-kt (peptide)
peptide: Ac-WRLR-kt
SMILES: CC(=O)N[C@@H](Cc1c[nH]c2ccccc12)C(=O)N[C@@H](CCCNC(=N)N)C(=O)N[C@@H](CC(C)C)C(=O)N[C@@H](CCCNC(=N)N)C(=O)c1nccs1
For the molecule B4, the IC50 of enzyme inhibition is 31 nM in test [5], 0.3 nM in test [6] and 275 nM in test [1]. The Ki in test [2] turned out to be 21 nM; in [11], 0.21 nM; in [12], 5.5 nM.

B5: Ac-WKLR(SEQ ID NO: 12)-kt (peptide)
peptide: Ac-WKLR-kt
SMILES: CC(=O)N[C@@H](Cc1c[nH]c2ccccc12)C(=O)N[C@@H](CCCCN)C(=O)N[C@@H](CC(C)C)C(=O)N[C@@H](CCCNC(=N)N)C(=O)c1nccs1
Take B5: the IC50 of enzyme inhibition was found to be 97 nM in test [5], 4 nM in test [6] and 320 nM in test [1]. Also, the Ki in test [2] was determined as 56 nM; in test [11], 0.55 nM; in [12] it was 8.6 nM.

Consider Ac-KRLR-{Kbt-Benzyl‑3‑COOMe} [Ac-KRLR(SEQ ID NO: 8)-kbt-Benzyl-3-COOMe], for which the Ki was 0.36 nM in test [7]; 1.8 nM in [8]; 7.76 nM in test [2]; 85.4 nM with recombinant thrombin [9]; 0.04 nM with Trypsin; 14 nM in the test with Factor Xa [10].

B6: Ac-SRLR(SEQ ID NO: 15)-kt (peptide)
peptide: Ac-SRLR-kt
SMILES: CC(=O)N[C@@H](CO)C(=O)N[C@@H](CCCNC(=N)N)C(=O)N[C@@H](CC(C)C)C(=O)N[C@@H](CCCNC(=N)N)C(=O)c1nccs1
Regarding B6, the IC50 of enzyme inhibition in test [5] worked out at 24 nM; in [6], 5 nM; in test [1], 303 nM. For the same molecule, the Ki in [2] is 24 nM; in test [11], 0.68 nM; in [12], 5.8 nM.

For the molecule Ac-Leu-Leu-Arg-kt [Ac-LLR-kt], the IC50 of enzyme inhibition in test [1] is 1480 nM. The Ki in [2] was 253 nM; in [11], 2.29 nM.

B7: Ac-RKLR(SEQ ID NO: 18)-kt (peptide)
peptide: Ac-RKLR-kt
SMILES: CC(=O)N[C@@H](CCCNC(=N)N)C(=O)N[C@@H](CCCCN)C(=O)N[C@@H](CC(C)C)C(=O)N[C@@H](CCCNC(=N)N)C(=O)c1nccs1
On to B7, for which the IC50 of enzyme inhibition in test [1] was found to be 370 nM. Besides, the Ki in test [2] turned out to be 17 nM; in [11], 0.47 nM; in [12], 0.83 nM.

B8: Ac-NKLR(SEQ ID NO: 14)-kt (peptide)
peptide: Ac-NKLR-kt
SMILES: CC(=O)N[C@@H](CC(N)=O)C(=O)N[C@@H](CCCCN)C(=O)N[C@@H](CC(C)C)C(=O)N[C@@H](CCCNC(=N)N)C(=O)c1nccs1
For the molecule B8, in test [1], the IC50 of enzyme inhibition was 397 nM and 400 nM. For the same molecule, the Ki in test [2] was 79 nM; in [11], 1.4 nM and 1.41 nM; in [12], 12 nM and 12.4 nM.

LLR (N-terminal acetyl; C-terminus printed as -H) [Leupeptin (Ac-LLR-H)]: the IC50 of enzyme inhibition in [5] turned out to be 1150 nM; in [6], 256 nM; in test [1], 535 nM. Moreover, the Ki in [2] is 188 nM; in test [11], 61 nM; in test [12] it was 696 nM.

B9: Ac-TKLR(SEQ ID NO: 16)-kt (peptide)
peptide: Ac-TKLR-kt
SMILES: CC(=O)N[C@H](C(=O)N[C@@H](CCCCN)C(=O)N[C@@H](CC(C)C)C(=O)N[C@@H](CCCNC(=N)N)C(=O)c1nccs1)[C@@H](C)O
As for B9, the IC50 of enzyme inhibition in test [1] is 567 nM. Moreover, the Ki in test [2] came to 103 nM; in [11], 0.61 nM; in test [12], 8.7 nM.

B10: Ac-WQLR(SEQ ID NO: 3)-kt (peptide)
peptide: Ac-WQLR-kt
SMILES: CC(=O)N[C@@H](Cc1c[nH]c2ccccc12)C(=O)N[C@@H](CCC(N)=O)C(=O)N[C@@H](CC(C)C)C(=O)N[C@@H](CCCNC(=N)N)C(=O)c1nccs1
For B10, the values for the IC50 of enzyme inhibition in test [5], in [6] and in [1] were 49 nM, 1 nM and 471 nM, respectively. The Ki in test [2] was 65 nM; in [11], 0.21 nM; in test [12], 32.4 nM.

B11: Ac-SQLR(SEQ ID NO: 7)-kt (peptide)
peptide: Ac-SQLR-kt
SMILES: CC(=O)N[C@@H](CO)C(=O)N[C@@H](CCC(N)=O)C(=O)N[C@@H](CC(C)C)C(=O)N[C@@H](CCCNC(=N)N)C(=O)c1nccs1
Regarding B11, in test [1], the IC50 of enzyme inhibition is 180 nM. Moreover, the values for the Ki in [2], in [11] and in test [12] were 182 nM, 0.34 nM and 9.2 nM, respectively.

Take H-KQDRR-kt (lactam 1-3; also: 3:1 D/L diastereomers at the alpha keto carbon) [H-cyclo(KQD)RR-kt]: the Ki was found to be 5940 nM in [2] and 0.71 nM in test [12].

As a reminder, the Ki is a measure of affinity in units of concentration, obtained from inhibition or displacement.
